Columns and labels:
MiaPACA-2 tumors = assay: MiaPACA-2 subcutaneous xenograft tumor development; type: in vivo, nude mice; settings: MiaPACA-2, end of experiment (day 30)
Experimental: (§1) MiaPACA-2 human pancreatic adenocarcinoma cell line and HCT116 human colorectal adenocarcinoma cell line in exponential growth were harvested with trypsin-EDTA (0.05%/0.02%) (Invitrogen), washed, and examined for viability by trypan blue dye exclusion. Viability was greater than 95%. For primary tumor growth, cells (either 5×10^6 or 1×10^6 cells for MiaPACA-2 or HCT116 respectively in 0.1 mL DMEM high glucose) were subcutaneously injected into the flanks of nude mice. Tumor volumes between 65-160 mm^3 for MiaPACA-2 and volumes between 155-370 mm^3 for HCT116 were used to divide the mice into two groups of either ten mice each (MiaPACA-2) or seven mice each (HCT116), such that the mean tumor size was equal between groups (approximately 100 mm^3 for MiaPACA-2 or 220 mm^3 for HCT116). Tumor growth was followed by measuring tumor diameters with calipers and the tumor volume was calculated using an approximated formula for a prolate ellipsoid: volume=(D×d^2)/2 where D is the longest axis of the tumor and d the shortest. Mice were treated either with vehicle (PBS) or with the antibody, i.p. three times per week at 25 mg/Kg/100 μL of sterile PBS, starting the treatment at defined tumor volume (100 mm^3 and 220 mm^3). […]

[1] = system: circulant S100A4 protein in plasma; assay: Plasma quantification of S100A4 by sandwich ELISA in xenograft tumor models; type: in vivo, athymic mice; settings: MiaPACA-2 and HCT116 xenograft tumor model, end of experiment
Experimental: Plasma levels of S100A4 were quantified by sandwich ELISA method. […] After removing the coating, plates were washed twice with PBS and incubated 1 h at 37° C. in blocking buffer (PBS containing 1% of skimmed milk).
Plasma samples diluted 1:4 in dilution buffer (PBS-4% BSA) were applied to the wells (100 μl/well) and were incubated 2 h at 37° C. Plates were washed eight times with washing buffer (PBS-0.1% of Tween-20) and Rabbit polyclonal anti-S100A4 secondary antibody (Dako) at the appropriate dilution was applied to the wells (100 μl/well) and were incubated for 1 h at 37° C.
Plates were washed eight times with washing buffer and Goat anti-Rabbit-IgG-peroxidase conjugated (Sigma) at the appropriate dilution was added to each well (100 μl/well) and were incubated 1 h at 37° C. […] Absorbance was ridden at 450 nm.
Standard curve for basal plasma samples (animals without tumor), was obtained by serial dilutions of murine recombinant S100A4 in dilution buffer. Standard curve for final plasma samples (animals with tumor at the end of the experiment) was obtained by serial dilutions of human recombinant S100A4 in dilution buffer.

Mouse S100A4 = target: T1, Mouse S100A4 (Mus musculus, UniProt P07091); assay: ELISA specificity (reaction pattern of mAb); type: binding; parameters: key to Reaction Pattern of mAb in ELISA, Mouse S100A4: ++++ positive reaction; − no reaction
T1 construct: made in house

Human S100A2 = target: T2, Human S100A2 (Homo sapiens, UniProt P29034); assay: ELISA specificity (reaction pattern of mAb); type: binding; parameters: key: ++++ positive reaction; − no reaction
T2 construct: purchased Abnova

Human S100P = target: T3, Human S100P (Homo sapiens, UniProt P25815); assay: ELISA specificity (reaction pattern of mAb); type: binding; parameters: key: ++++ positive reaction; − no reaction
T3 construct: made in house
T3 sequence (P25815 1-95): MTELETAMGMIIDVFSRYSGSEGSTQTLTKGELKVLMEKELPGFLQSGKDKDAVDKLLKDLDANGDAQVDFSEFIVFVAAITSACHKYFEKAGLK

[2] = Body weight and adverse side effects in xenograft experiments; type: in vivo
Human S100A4 = Human S100A4 (Homo sapiens, UniProt P26447); assay: ELISA specificity (reaction pattern of mAb); type: binding; parameters: the final full-length recombinant S100A4 protein has an additional Gly-Ser-His at the N-terminus; His tag (pET28a) (N); made in house; host or cells: E. coli Tuner (DE3); key to Reaction Pattern of mAb in ELISA, Human S100A4: ++++ positive reaction; − no reaction
HCT116 tumors = assay: HCT116 subcutaneous xenograft tumor development; type: in vivo, nude mice; settings: HCT116, end of experiment (day 21)
Experimental: as §1

murine S100A4 = target: T4, murine S100A4 (Mus musculus, UniProt P07091); assay: Western-blot of NIH-3T3 mouse fibroblast extract; type: binding
T4 construct: total extracts from tumor cell lines of different origins and the mouse embryonic fibroblast cell line NIH3T3; endogenous in cells; host or cells: NIH-3T3 mouse fibroblasts
Experimental: Cell and tumors samples were rinsed twice with PBS and immediately lysed with ice cold Cell Lysis Buffer (150 mM NaCl, 1% IGEPAL CA630, 5 mM EDTA, 100 μg/mL PMSF, 1 mM Na3VO4, 1 mM NaF and 50 mM Tris pH 7.4). Lysates were cleared by centrifugation and the protein concentration was quantified with the Bradford reagent (Bio-Rad). Total extracts (50 μg) were resolved in a 12% SDS-polyacrilamide gel (PAGE) electrophoresis under reduced conditions and transferred to BioTrace™ PVDF membranes (PALL corporation). Membranes were blocked for 1 hour in TBS plus 0.1% Tween-20 with 5% skimmed dried milk, incubated overnight with the relevant primary antibody and then with the secondary antibodies for 1 hour in blocking buffer, washing three times for 10 min in TBS plus 0.1% Tween-20 after each incubation. Signals were developed using the ECL™ Western Blotting Detection Reagents (Amersham) and exposed to Hyperfilm™ ECL (Amersham).

[3] = 25 mg/kg i.p. three times a week

Chain of Human S100A4 (P26447 with tags, fused parts or gaps): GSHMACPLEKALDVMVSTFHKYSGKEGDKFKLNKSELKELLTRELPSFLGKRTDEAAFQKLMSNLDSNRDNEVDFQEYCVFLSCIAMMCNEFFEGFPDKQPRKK
T1 sequence (P07091 whole entry): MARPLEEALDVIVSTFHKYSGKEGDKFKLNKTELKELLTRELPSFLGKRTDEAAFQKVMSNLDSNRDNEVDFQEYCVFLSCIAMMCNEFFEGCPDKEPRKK
T2 sequence (P29034 whole entry): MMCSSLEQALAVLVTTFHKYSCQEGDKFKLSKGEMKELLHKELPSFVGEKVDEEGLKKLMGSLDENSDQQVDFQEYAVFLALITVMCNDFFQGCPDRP
T4 sequence (P07091 whole entry): as the sequence (P07091 whole entry) above

B1: 5C3: mouse monoclonal anti-S100A4 antibody, IgG1, from hybridoma ECACC 10022401; VL SEQ ID NO: 1, VH SEQ ID NO: 2 (antibody, V domains shown)
VH: EAQLQQSGAELVKPGASVKLSCTASGFNIQETYMHWVKQRPEQGLEWIGRIDPANGNTKDDPKFQGKASITVDTSSNTAYLQLSSLTSEDTAVYYCASSYAMDYWGQGTSVTVSS
VL: DVLMTQTPLSLPVSLGDQASISCRSSQSIVHSNGNTYLEWYLQKTGQSPELLIYKVSNRLSGVPDRFSGSGSGTDFTLKISRVEAEDLGVYYCFQGSHVPFTFGSGTKLEIK
modifications: VH region of the 5C3 monoclonal antibody; VL region of the 5C3 monoclonal antibody
MiaPACA-2 tumors
  tumor weight compared with the control group: statistically significant decrease
[1]
  S100A4 protein levels in plasma of treated animals (unbound to 5C3): blocks the totality of circulant S100A4 protein in plasma
Mouse S100A4
  Reaction Pattern of mAb in ELISA, Mouse S100A4: ++++
Mouse S100A4; purified protein
  reaction with murine S100A4 by ELISA: reacted
Human S100A2
  Reaction Pattern of mAb in ELISA, Human S100A2: −
Human S100P
  Reaction Pattern of mAb in ELISA, Human S100P: −
[2]; [3]
  adverse side effects (motor incoordination, paralysis, ataxia, convulsions, diarrhoea, cachexia, erythema, hypothermia, mortality): did not observe adverse side effects
  body weight loss: No body weight loss
  macroscopic analyses of organs: did not evidence abnormalities in organs
[2]; 25 mg/kg, three times a week up to the end of experiment
  tolerability: well-tolerated
Human S100A4
  Reaction Pattern of mAb in ELISA, Human S100A4: ++++
Human S100A4; purified protein
  reaction with human S100A4 by ELISA: reacted
HCT116 tumors
  tumor weight compared with the control group: induced a decrease in tumor weight
Murine S100A4
  reaction with murine S100A4 in Western-blot: also with murine S100A4

From patent publication US9657092B2, “S100A4 antibodies and therapeutic uses thereof” (LYKERA BIOMED SA, priority 2010, dated 2017)
